Measurements from the DeepSol protein solubility set.

assay: soluble on expression in E. coli; label from the status in PepcDB or PDB records

**Q.** For “MGLSCALTSGLSLRCFSNTPARLSCGAGILHCSKLCLSGFGDPAQGRLHNANHGAVRLHGTVTAFKHRRGYGFVLAEGVAASAPPLKHTYVALDTHAAAARNNGVPPAREEACNELHKSFFFTRSALMGGFYVTEGERVSFAVVAVPPGKGINRRVAGDSPSTRKDDGDHAALGGAETAEFLLGSPEGELEEDSSAATSDTQSQLHRIAVSLRYYDAKTGKETPISPLTLYGKIVEWDAAAGVGVIAELDTRRQYHEDAPRFPFSLESVDLALGTELRSGRYVRFCLEPATHAQGGGGEDTAAAVTPTSGAEAAADVDEDVELVAQRVIIDSSMERRKGVFGRPLVLADAAPGTMTSESRFSGVVREVKADHFGFIQDDLSGESIFFHLSNASSRVKAGDRVTYLLREVEYGKHTGKKACFDVLIDQTVTSRARDAASDCGASAGAGNAGGHHRKHAAERRSKTARDEDDLDFELL”, which “soluble on expression in E. coli” value is on record?
**A.** not soluble

**Q.** Which “soluble on expression in E. coli” value does the source give for “MLWQKPTAPEQAPAPARPYQGVRVKEPVKELLRRKRGHASSGAA” here?
**A.** soluble

**Q.** With “MSLSQASTVCALNDHLPNTVLRLPLKYPSTNKELKSHEYFESQIAYTGCLIATTTHMVDHISWRLNNDLKTITLTPICISNPFQLECRTISLLLPSQVYPHCIDAVYHGEEGGYLVVDVIDENYLWITLRIEMNDFLHNTKNFRPLTLDQFESWGHISVPYSFELRSNPYCLRVLDERNVVVSLKDGGLLHFQRSSVLADFNVFNCEESAHFHLGGILDGIFKSGRADLTVDGVSSNAAIDATIVPDPSKSLIATLTVSKTIKFWDLKEHSLLRERTIHPQDTNTWLSFGPARYLQCYGNVLGVHSLLQTKHSTSIDFWDVSPLKEDQKSYKILHTVELLSPTINGAPSDSPFSNDIWFIQDFTLKFEKGNFTVLWKSNNSSILTIYDLKNLAENDKPPKLSQWTLSGSEGHHHHHH” as the sequence, how does the “soluble on expression in E. coli” value read?
**A.** soluble

**Q.** For “GPGSMSHSALAYAACPMCTRVVHMGQMLHHILSTHKEQDPAYWMRLCNARLALYERVTGAPLEGTETMRDACLAQATAAVAEAADSEAMVPGGLSLSTPLSTHDALRPFLPTVSETGTYTCNWCALRSVAFSSRDAFLLHVAKDHPKLDFDVVESLVPQPLTVSSRAARNEGTGTPAPRAPAAESDVTVSDSWTRQQRGGAGCVGAASNSHAAEGFDVAYPVRRMPGVRTVQDTNVVTVKPEVHQLGTSVGRVGRNAFDPAPISTGGRRSRAAVSASSTASATAVANDLHFDKDCFPCELCFRVFVSELNLLQHLESKHTNPTTLASVSDASVERAAPPGTASASSTAAASPSSVEVFVVCDRCTDRKKVFRSSSALFSHIRFRHPAEDAAYETERMIEEQRQSRVFQCPHCRYRHPDMTRLDTHMRDAHGVVGCAGEKTIRGGRVVSGTAQPHGSAELKTAQPSLFSALPPVTVRTRFWCSVCEKGFANASALYAHTESKHTTIASLYPCPACKREFRDVPSLESHVQLCHKNLSLKDMGLQSSVECPDCLRHFLNYESLHDHAVRHHGKSAIAPVRSFVTPVSASTAGEGVGVAAAVPVPGTSTDASGSTTSPLAVAAPPKPRKVTRRKKEPSTAATES”, which “soluble on expression in E. coli” value is on record?
**A.** not soluble

**Q.** With “MSATTTNLKEAIVNRRSIRKVTKNDAITKERIEEVLKTALHAPTSFNMQSGRMVVLMDGEHEKFWDIVKETLRARVPAENFEATVERLKGFHAGVGTVLFFEDQATVEKMQENAPLYKDQFPFWSHQGNAMLQHTVWMLLSAEGIGASLQHYNPIVDAEVKETWNIPAEWSLVGQMPFGEPNEQPAERTFLPTEDVVKFY” as the sequence, how does the “soluble on expression in E. coli” value read?
**A.** soluble

**Q.** For “MGSDKIHHHHHHMKSDLELKHDVDQELLWDPALDARNVTATVLNRIVTLEGSVNSCAQKLALQKAVQRVAGSRAVVLDLVVRAPSPLRHTDEDLAAAIVSALQWQEGLPEDAIRVVVEHGCVTLTGEVDYGFQRQMAEVLVSRMRGVVGVANQIEVRIDPVAADVSKHIAEALQRRSRRESGGISVDVHDGVVRLTGVADSLLESVWPAASPGAPRACGGWSTSWSSHESRRLALHAFPSCLNQL”, which “soluble on expression in E. coli” value is on record?
**A.** not soluble

**Q.** Which “soluble on expression in E. coli” value does the source give for “MNTEIEIIATDKVSNQAAMRSVLVMEQWGNGETYSEERWVERGRQAVRQTMEGMFELGRALIILKEHTEHGRFMEIVKSQFGLGIAETSRLMSATRRFATPQMQKAAPKLMDLGKSKLLELLVEEDVTLVGLAEGEEVNGMTFDDVDRMTVRELRVALRESRENLAAKDEVMKTKTAKIDELAEKLAKKQTVVREPKAEDVGSELAMQLTSLEVGIRSQVSRLKDLFDQLNAHSEAHGISHQAKMVGTLNQIILDCEQLRESYALPTEAPTDNVPEWLGGETGEGDESGND” here?
**A.** not soluble

**Q.** For “MGSDKIHHHHHHVPQRTSFNGSTRPAWKNTTALIRNPKIASILATGGTGMVHAALQSGNPSMGVGAGNGAVYIDHTAFLDRAVEDILLSKRFDNSMVCATENSAVVEAPIYDKWLQMIQDKGAYLVPKKDYQKLADFVFNDKRGVNGPVAGMSARWICEHAGVTLSEGKDVLLFELDPKNIGEKLSSEKLSPLLSVYKAKDREDGIRIVKALLDYQGAGHNAAIQIGSQNDPFIDEYGKAVQASRVLVNQPDALGGIGDIYSDGLRPSLILGTGSWGKNSLSHNLSTSDLLNIKTIAKQRNRPQWIRLPEKIFTKKTSLPIFQMKMSRKSAGPLSSLTRAWSSSTSLTRSMNSWL”, which “soluble on expression in E. coli” value is on record?
**A.** not soluble

**Q.** For “MIINITILEDNESDFITLSDSIKKWAANTGILINIIWLNSYKKFIKSLPTLKCDLFFSDIELNCNNSFTGIDACKQLRESGYTGIIIFLTAFKEYVFDGYDVQAFNYLLKPINYGTINNCLDKFIHLFSREFYYLEHHHHHH”, which “soluble on expression in E. coli” value is on record?
**A.** soluble

**Q.** Which “soluble on expression in E. coli” value does the source give for “MFLLKQIGVIRSPFKSPSECPFQGRFSQERFTIELFPEYEEGLKDIETCTHLIVLYWLDRANRDRLIAIPPFDKREHGVFATRSPHRPNPIGFSVVKLLEVRGRELVVEGLDAVDGTPVVDIKPYSSKIDCVENARIGWFEEV” here?
**A.** soluble

**Q.** For “MGSDKIHHHHHHMLHQLTVLFKDHLSTDPTVYCTDKYTVYQLADGLRFGIENTILTPRELDLLNLLVERVVTSESDQIVTWRRRLEQPSSEEAHPFRMIHFLFEQLDVRTGEDLQQLLTSFFHPSSWIIPLTSNRLVVIEREDSVSENDLHDFFTALQSDFLMDGKVLIGQQRQSGDLAAQFRLEQAALRELPLLHIERFLPALMRLTLLSNEVRDDLIERFITPLERESRETIDAFCRANLNVSLTAKHLFLHRNSLQYRLDRLTEQTEIDIRSFEGAMFLYTLLLVA”, which “soluble on expression in E. coli” value is on record?
**A.** not soluble

**Q.** For “MGSDKIHHHHHHMVQDRKSTVVITGASSGVGLYAAKALAERGWYVVMACRDVAKAQLAAQSVGIPHQGSYTIMHIDLGSLDSVRQFVKNFRASGHSLDALVCNAAIYMPLIKEPLRSPEGYELTVTTNHLGHFLLCNLMLEDLKKSSSEPRLVILGTVTHNPDELGGKIPPRPDLGDLQGFAEGFKEPISMIDGKKFEPVKAYKDSKVCNVLTMRELHQRYHESTGIVFNSLYPGCVAETPLFRNHYPLFQKIFPLFQKYITKGYVSQELAGERVAAVVADPEYNQSGVYWSWGNRQKEDGKSFVQKVSPQARDDDKGDRLWQLSAKLVGLA”, which “soluble on expression in E. coli” value is on record?
**A.** not soluble

**Q.** For “MSLGPIIMGQSLKAGIFFRIVTGSASMSSDRADGSSVTYSSNRSGNPDLRLIHYNDVYHVEPGSAEPVGGAPRFQSVINHYRSHPSFDGQPTPLTFFSGDAFNPSLESTVTKGRHMVPFLNKAGTNVACVGNHDLDFGVAQFRHLRNQCQFPWLLANVLDPALGEDVPIANCEKTCMLTSSNGIKVGVIGLGEREWLGTINSLPPDLIYKSASKTAIELVPSLREQGAELIVAVTHQREPNDYKLAESIPYGMIDIILGGHDHFYGHAFLNGVHILRSGTDFKQLSYIEAFRKTDGRGWDFNIVRREGHHHHHH”, which “soluble on expression in E. coli” value is on record?
**A.** soluble

**Q.** With “MGSDKIHHHHHHMTSPRIISIEGPMGAGKTSLARQLAQSLGGRMILEAPAQNPFLSRFYQGPGAALATELQFFMQRREQWRHRDDSSWLISDHSARKDEIFTPLTLDAEEHHLFNELRMALDFHPAPADLMIFLDAPLAVLMKRIRARGDAYEQALAPDYLARVQAAYRAWQANYALPRMNVDSAQVDFVHDPRHTERLIDAVRHRLKDAEEQDA” as the sequence, how does the “soluble on expression in E. coli” value read?
**A.** not soluble

**Q.** For “GPGSMPPSHTLLNRRGQQFSSRMHVGAKRKRVEDNASPVSSLYRPLCRGLSTRGSGASAVSCPSVVVILEKAGLLLGREGVVDAYDRAGSTTIANASLRDVRPDIVHQCLLALFDSGLAQEQRQLRVFINLFSRGGRTVEVSPSLRPPRTLRRFKGLVAALLRDGVVRSQDGEVLLQVLPGSLAPVLPYGAEVIGLTNAHSAPVRTPTQLARAALENPVDDKLQGGLKGVAGFFCICCSEDGSLDGVDYVTQQVCLSAYPMTAHVMCSRLCEGFSRAAATGNR”, which “soluble on expression in E. coli” value is on record?
**A.** not soluble

**Q.** With “MGVVNVPSNGREKFKKNWKFCVGTGRLGLALQKEYLDHLKLVQEKIGFRYIRGHGLLSDDVGIYREVEIDGEMKPFYNFTYIDRIVDSYLALNIRPFIEFGFMPKALASGDQTVFYWKGNVTPPKDYNKWRDLIVAVVSHFIERYGIEEVRTWLFEVWNEPNLVNFWKDANKQEYFKLYEVTARAVKSVDPHLQVGGPAICGGSDEWITDFLHFCAERRVPVDFVSRHAYTSKAPHKKTFEYYYQELEPPEDMLEQFKTVRALIRQSPFPHLPLHITEYNTSYSPINPVHDTALNAAYIARILSEGGDYVDSFSYWTFSDVFEEMDVPKALFHGGFGLVALHSIPKPTFHAFTFFNALGDELLYRDGEMIVTRRKDGSIAAVLWNLVMEKGEGLTKEVQLVIPVSESAVFIKRQIVNEQYGNAWRVWKQMGRPRFPSRQAVETLRQVAQPHVMTEQRRATDGVIHLSIVLSKNEVTLIEIEQVRDETSTYVGLDDGEITSYSS” as the sequence, how does the “soluble on expression in E. coli” value read?
**A.** soluble

**Q.** Which “soluble on expression in E. coli” value does the source give for “MDIFSGLFTQVNNNNEEDLRVELQNMKPGEGVIRAEVGPSGVATFKKYFLQDGKLQFEIVKHPI” here?
**A.** not soluble

**Q.** With “MEFYDARKWCHYQSPVPSYLAYVPDLSTSNFLATYARAAFETNRFWIGLSRFDYFDPYLWDNGRPVTYTNFGTGTGNFVAEHTLNGKWYLYGNGAKNVFVCSYDPAAPPTFPPPFILTTRQSTITSANSCQPGGPISFLFAYSNDLDPQVVKDSWDLSNIDDYSGYSVYAIAKFDVLEEEDIVYFLDKKLATTYVHSHLSNSSLGFNGTTTGSDSLRIIEVGNVEGIESSQFLNFQKFFNNKDVTVCGSVCLILEKRYPNDEDISKTVSLVRYYHGIVYAVSSINPSGGTQSKAIYNLTSRTNGIFCSTDPSGGNQSKTIYNLTSKTNGLCNFAKDKDIAGLVTSVPMFYPPYPIYCANVLVSGQNITELPSMYVPQSIMYYTVFASVEDHGPLDNFQSFDFSWFNSDEPRYIQHLQSNSTVMDGVTSSGVYYIAPEIYTMKVQYNYTNKMEQAMQVRVYTYDGENSADWIPYCD” as the sequence, how does the “soluble on expression in E. coli” value read?
**A.** not soluble

**Q.** For “SLNPRDVVIVDFGRTPMGRSKGGMHRNTRAEDMSAHLISKVLERNSKVDPGEVEDVIWGCVNQTLEQGWNIARMASLMTQIPHTSAAQTVSRLCGSSMSALHTAAQAIMTGNGDVFVVGGVEHMGHVSMMHGVDPNPHMSLYAAKASGMMGLTAEMLGKMHGISREQQDAFAVRSHQLAHKATVEGKFKDEIIPMQGYDENGFLKIFDYDETIRPDTTLESLAALKPAFNPKGGTVTAGTSSQITDGASCMIVMSAQRAKDLGLEPLAVIRSMAVAGVDPAIMGYGPVPATQKALKRAGLNMADIDFIELNEAFAAQALPVLKDLKVLDKMNEKVNLHGGAIALGHPFGCSGARISGTLLNVMKQNGGTFGLSTMCIGLGQGIATVFERV”, which “soluble on expression in E. coli” value is on record?
**A.** soluble

**Q.** Which “soluble on expression in E. coli” value does the source give for “MGSSHHHHHHSSGLVPRGSHMSQDVPGNLLDEIRILRSPKGYLYAGLPKFRALFGRDSIISSIQLIDLFPDIAQNTVIYLKDLQGRKLDYSIGEYPGKILHEYYDDEKIFLDRKRSIPWLNSRINYFSVDSTPLFILLIKNLFLRNLIDIEQFKDSIMMAMQFLIAYSSSDGLITYDKALLGAGLMSQSWRDGVGDIMDRLKSPVATVGVQGYFYESADFVLNLFPDSLIEESLPDLKDFYSKMREILENKFWLEETGYYGLAVDGDGVIEQAATSDPGHLIGSGILTRSRERDVIDRLFESDLLTDYGIRTLSAKDPRFDPKAYQRGSIWPQDNWIIADGIKRRGYLKEYRELRERLIAAYEYYGRMPEYFGVDRYGKIMDLSKLRIKPCYPQAWSTGAIINFVTFK” here?
**A.** soluble
